Molecular target: the molecule itself
Test: SEC + AUC

B1: MutLΔC20 deletion mutant (domain or fragment, Escherichia coli, UniProt P23367 1-595, looked up)
chain: MPIQVLPPQLANQIAAGEVVERPASVVKELVENSLDAGATRIDIDIERGGAKLIRIRDNGCGIKKDELALALARHATSKIASLDDLEAIISLGFRGEALASISSVSRLTLTSRTAEQQEAWQAYAEGRDMNVTVKPAAHPVGTTLEVLDLFYNTPARRKFLRTEKTEFNHIDEIIRRIALARFDVTINLSHNGKIVRQYRAVPEGGQKERRLGAICGTAFLEQALAIEWQHGDLTLRGWVADPNHTTPALAEIQYCYVNGRMMRDRLINHAIRQACEDKLGADQQPAFVLYLEIDPHQVDVNVHPAKHEVRFHQSRLVHDFIYQGVLSVLQQQLETPLPLDDEPQPAPRSIPENRVAAGRNHFAEPAAREPVAPRYTPAPASGSRPAAPWPNAQPGYQKQQGEVYRQLLQTPAPMQKLKAPEPQEPALAANSQSFGRVLTIVHSDCALLERDGNISLLSLPVAERWLRQAQLTPGEAPVCAQPLLIPLRLKVSAEEKSALEKAQSALAELGIDFQSDAQHVTIRAVPLPLRQQNLQILIPELIGYLAKQSVFEPGNIAQWIARNLMSEHAQWSMAQAITLLADVERLCPQLVKTP
  stoichiometry N: 2
